Article PMC8564726, “Heterodimerization of H3K9 histone methyltransferases G9a and GLP activates methyl reading and writing capabilities” (The Journal of Biological Chemistry, 2021)
Read-outs that look alike come from different tables or passages of the source.

Legend:
[1] = test system: H3K9me1 monomethylated mononucleosomes; experiment: Fluorescence polarization binding to H3K9me1 mononucleosome
Text: (§1) Histone proteins and nucleosomes were purified as described ([11], [26]) with modifications (see Supporting methods). For fluorescence polarization, nucleosomes were reconstituted with a 5ʹ fluoresceinated DNA template. H3K9 dimethylation was installed via Methyl-Lysine Analog (MLA) technology as described ([10], [26]). K9 MLA-monomethylated H3 was purchased from Active Motif. H3K27A was introduced by site-directed mutagenesis and purified as described ([26]).
(§2) Polarization assays with fluoresceinated H3_1–20 K9me1 or K9me2 peptides, 147 bp 601 DNA template, and core nucleosomes were performed and Kd values estimated as described ([11]) with the following modifications: The reaction buffer was 100 mM Tris pH 8, 100 mM KCl, 1 mM MgCl2, 20 μM ZnSO4, 10 mM BME, 0.1% NP-40. The concentration of peptides and nucleosomes was 150 nM and 200 nM for DNA. Polarization measurements were conducted on a Biotek Cytation 5 (peptide and nucleosome) or Molecular Devices Spectramax (DNA) plate reader with low-volume plates (Corning) in either 10 μl (peptide, nucleosome) or 40 μl (DNA) total volume.

H3_1–20 peptide = experiment: H3 tail peptide methylation kinetics (multiple turnover); assay type: biochemical; conditions: Michaelis–Menten, 9 μM 3H-SAM + 1000 μM cold SAM, 0.4 to 0.8 μM enzyme, pH 8, duplicates, 95% CI: G9a-G9a 24.6-34.6, GLP-GLP 9.5-15.5, G9a-GLP 26.0-34.5, G9aS-GLP 20.5-28.3, listed as GLP
Experimental: (§3) Substrate peptides or nucleosomes were mixed in a solution containing 9 μM tritiated S-Adenosyl Methionine (SAM, PerkinElmer) cofactor, and reactions were initiated upon addition of 0.4 to 0.8 μM enzyme. Peptide reactions were supplemented with 1000 μM cold SAM to fully saturate the SAM-binding pocket (Fig. S3). Due to signal limitations, nucleosome reactions were not supplemented with SAM (see Supporting methods). Reactions were run in 100 mM Tris pH 8, 100 mM KCl, 1 mM MgCl2, 20 μM ZnSO4, 10 mM BME and quenched with laemmli buffer. Peptide reactions were performed as described ([11]). Nucleosome methylation reactions were read out via autoradiography as described ([11]), except that proteins were separated on an 18% SDS PAGE gel.
All methylation reactions (except Fig. S4A) were performed under Multiple Turnover conditions ([25]). To determine initial rates, methylation time courses were traced at various concentrations of H3K9-containing substrate while keeping the concentration of SAM and enzyme constant. Plots of initial rate versus concentration H3K9 substrate measured in duplicate or triplicate were fit to V = Vmax∗[S]/(KM + [S]) using Prism software to extract KM and kcat (or kobs) values as well as the 95% confidence interval bounds of the fit. See Supporting methods for special considerations for nucleosome kinetics.

H3_1–20 K9me2 peptide = experiment: Fluorescence polarization binding to H3K9me2 peptide
Experimental: as §2

H3_1–20 K9me1 peptide = experiment: Fluorescence polarization binding to H3K9me1 peptide
Experimental: as §2

[2] = test system: mononucleosome (core nucleosome); experiment: Mononucleosome methylation kinetics (multiple turnover); assay type: biochemical; conditions: initial rates, 10 μM histone tails (Fig. 3F)
Text: as §1
Substrate peptides or nucleosomes were mixed in a solution containing 9 μM tritiated S-Adenosyl Methionine (SAM, PerkinElmer) cofactor, and reactions were initiated upon addition of 0.4 to 0.8 μM enzyme. Peptide reactions were supplemented with 1000 μM cold SAM to fully saturate the SAM-binding pocket (Fig. S3). […] Nucleosome methylation reactions were read out via autoradiography as described ([11]), except that proteins were separated on an 18% SDS PAGE gel. […]
(§4) Detailed E. coli protein expression, purification, and tag cleavage methods Cells co- expressing His and MBP constructs were lysed on ice via sonication in lysis buffer (100mM Tris pH 8, 300mM NaCl, 10% glycerol (v/v), 0.1% Tween-20, with freshly added 1mM β-mercaptoethanol (BME), 1mM PMSF, 5mM Benzamidine, 200µM Leupeptin, Aproptinin, Pepstatin, Phenantroline). […] All protein constructs were quantified using SDS page with BSA standards and Sypro Red stain. […]

[3] = test system: unmethylated (H3K9me0) mononucleosomes; experiment: Fluorescence polarization binding to unmethylated mononucleosome
Text: as §1, §2

10-nucleosome arrays = experiment: Nucleosome array methylation, initial rate; assay type: biochemical; conditions: 2 μM histone tails, nonsaturating (Fig. 3H)
Experimental: as §3
All methylation reactions (except Fig. S4A) were performed under Multiple Turnover conditions ([25]). […]
as §4

Row | binding to H3K9me1 nucleosomes, in words [1] | reduced binding to me2 peptides (fold) (H3_1–20 K9me2 peptide; GLP ANK-SET homodimer, reduction as worded (reference me1 binding or ANK alone not stated)) [times] | affinity for H3K9me1 peptide, in words (H3_1–20 K9me1 peptide; listed as GLP) | binding to nucleosomes, in words [3] | Kd ([3]; 147 bp 601 DNA 5ʹ fluorescein-labeled nucleosomes, 150 nM, pH 8, 100 mM KCl, 0.1% NP-40, 95% CI (μM): G9a 6.4-8.6, G9a-GLP 5.6-7.6, GLP-GLP 17.4-41.5, read-out: Kd, unmethylated (me0) mononucleosome) [µM] | Molecule | kcat, H3_1–20 peptide (H3_1–20 peptide) [s⁻¹] | affinity for H3K9me1 peptide, in words (H3_1–20 K9me1 peptide) | activity on mononucleosomes near saturation, in words [2] | initial rate on nucleosome arrays, in words (10-nucleosome arrays) | affinity for H3K9me2 peptide, in words (H3_1–20 K9me2 peptide)
1 | binds relatively tightly to H3K9me1 | 12.5 | binds H3K9me1 peptides tightly | binds poorly to nucleosomes | 26.3 | GLP-GLP: homodimer of GLP truncated to the C-terminal ANK and SET domains (ANK-SET) (protein) MAAADAEQAVLAKQETKQDCCMKTELLREDTPMAADEGSTEKQEGETPMAADGETNGSCEKSGDPSHLNAPKHTQENTRASPQEGTNRVSRVAENGVSERDTEVGKQNHVTADDFMQTSVIGSNGYFLNKPALQGQPLRTPNILTSSLPGHAAKTLPGGASKCRTLSALPQTPTTAPTVPGEGSADTEDRKPTASGTDVRVHRARKTMPKSILGLHAASKDHREVQDHKEPKEDINRNISECGRQQLLPTFPALHQSLPQNQCYMATTKSQTACLPFVLAAAVSRKKKRRMGTYSLVPKKKTKVLKQRTVIEMFKSITHSTVGAKGEKALDDSALHVNGESLEMDSEDEDSDELEDDEDHGAEQAAAFPTEDSRTSKESMSETDRAAKMDGDSEEEQESPDTGEDEDGGDESDLSSESSIKKKFLKRRGKTDSPWIKPARKRRRRSRKKPSSMLGSEACKSSPGSMEQAALGDSAGYMEVSLDSLDLRVRGILSSQTENEGLASGPDVLGTDGLQEVPLCSCRMETPKSREISTLANNQCMATESVDHELGRCTNSVVKYELMRPSNKAPLLVLCEDHRGRMVKHQCCPGCGYFCTAGNFMECQPESSISHRFHKDCASRVNNASYCPHCGEEASKAKEVTIAKADTTSTVTLAPGQEKSLAAEGRADTTTGSIAGAPEDERSQSTAPQAPECFDPAGPAGLVRPTSGLSQGPGKETLESALIALDSEKPKKLRFHPKQLYFSARQGELQKVLLMLVDGIDPNFKMEHQSKRSPLHAAAEAGHVDICHMLVQAGANIDTCSEDQRTPLMEAAENNHLDAVKYLIKAGAQVDPKDAEGSTCLHLAAKKGHYDVVQYLLSNGQMDVNCQDDGGWTPMIWATEYKHVELVKLLLSKGSDINIRDNEENICLHWAAFSGCVDIAEILLAAKCDLHAVNIHGDSPLHIAARENRYDCVVLFLSRDSDVTLKNKEGETPLQCASLSSQVWSALQMSKALRDSAPDKPVAVEKTVSRDIARGYERIPIPCVNAVDSELCPTNYKYVSQNCVTSPMNIDRNITHLQYCVCVDDCSSSTCMCGQLSMRCWYDKDGRLLPEFNMAEPPLIFECNHACSCWRNCRNRVVQNGLRARLQLYRTQDMGWGVRSLQDIPLGTFVCEYVGELISDSEADVREEDSYLFDLDNKDGEVYCIDARFYGNVSRFINHHCEPNLVPVRVFMSHQDLRFPRIAFFSTRLIQAGEQLGFDYGERFWDVKGKLFSCRCGSSKCRHSSAALAQRQASAAQEPQENGLPDTSSAAAADPL | ~0.233 | can recognize H3K9me1 | slowest of the three enzyme constructs | slowest | –
2 | – | – | – | – | – | full-length G9a: E. coli expressed MBP:FL-G9a (protein) MRGLPRGRGLMRARGRGRAAPTGGRGRGRGGAHRGRGRPRSLLSLPRAQASWAPQLPAGLTGPPVPCLPSQGEAPAEMGALLLEKEPRGAAERVHSSLGDTPQSEETLPKANPDSLEPAGPSSPASVTVTVGDEGADTPVGAASLIGDEPESLEGDGGRIVLGHATKSFPSSPSKGGACPSRAKMSMTGAGKSPPSVQSLAMRLLSMPGAQGAATAGPEPSPATTAAQEGQPKVHRARKTMSKPSNGQPPIPEKRPPEVQHFRMSDDMHLGKVTSDVAKRRKLNSGSLSEDLGSAGGSGDIILEKGEPRPLEEWETVVGDDFSLYYDAYSVDERVDSDSKSEVEALAEQLSEEEEEEEEEEEEEEEEEEEEEEEEEDEESGNQSDRSGSSGRRKAKKKWRKDSPWVKPSRKRRKREPPRAKEPRGVNGVGSSGPSEYMEVPLGSLELPSEGTLSPNHAGVSNDTSSLETERGFEELPLCSCRMEAPKIDRISERAGHKCMATESVDGELLGCNAAILKRETMRPSSRVALMVLCEAHRARMVKHHCCPGCGYFCTAGTFLECHPDFRVAHRFHKACVSQLNGMVFCPHCGEDASEAQEVTIPRGDGGTPPIGTAAPALPPLAHDAPGRADTSQPSARMRGHGEPRRPPCDPLADTIDSSGPSLTLPNGGCLSAVGLPPGPGREALEKALVIQESERRKKLRFHPRQLYLSVKQGELQKVILMLLDNLDPNFQSDQQSKRTPLHAAAQKGSVEICHVLLQAGANINAVDKQQRTPLMEAVVNNHLEVARYMVQLGGCVYSKEEDGSTCLHHAAKIGNLEMVSLLLSTGQVDVNAQDSGGWTPIIWAAEHKHIDVIRMLLTRGADVTLTDNEENICLHWASFTGSAAIAEVLLNAQCDLHAVNYHGDTPLHIAARESYHDCVLLFLSRGANPELRNKEGDTAWDLTPERSDVWFALQLNRKLRLGVGNRAVRTEKIICRDVARGYENVPIPCVNGVDGEPCPEDYKYISENCETSTMNIDRNITHLQHCTCVDDCSSSNCLCGQLSIRCWYDKDGRLLQEFNKIEPPLIFECNQACSCWRSCKNRVVQSGIKVRLQLYRTAKMGWGVRALQTIPQGTFICEYVGELISDAEADVREDDSYLFDLDNKDGEVYCIDARYYGNISRFINHLCDPNIIPVRVFMLHQDLRFPRIAFFSSRDIRTGEELGFDYGDRFWDIKSKYFTCQCGSEKCKHSAEAIALEQSRLARLDPHPELLPDLSSLPPINT | – | no discernable affinity for me1 or me2 peptides | – | – | no discernable affinity for me1 or me2 peptides
